The text below walks through data of US20210085786A1.

For the assay, the target named is receptor tyrosine kinase-like orphan receptor 1 (ROR1) (human) (UniProt Q01973). Put plainly: flow cytometry (FSC against control stain) of PDX tumour cells stained with the control antibody, same ROR1+ gate. (In general: In flow cytometry, cells or beads pass a laser one at a time.)
Sequence of UniProt Q01973 (Q01973 30-937): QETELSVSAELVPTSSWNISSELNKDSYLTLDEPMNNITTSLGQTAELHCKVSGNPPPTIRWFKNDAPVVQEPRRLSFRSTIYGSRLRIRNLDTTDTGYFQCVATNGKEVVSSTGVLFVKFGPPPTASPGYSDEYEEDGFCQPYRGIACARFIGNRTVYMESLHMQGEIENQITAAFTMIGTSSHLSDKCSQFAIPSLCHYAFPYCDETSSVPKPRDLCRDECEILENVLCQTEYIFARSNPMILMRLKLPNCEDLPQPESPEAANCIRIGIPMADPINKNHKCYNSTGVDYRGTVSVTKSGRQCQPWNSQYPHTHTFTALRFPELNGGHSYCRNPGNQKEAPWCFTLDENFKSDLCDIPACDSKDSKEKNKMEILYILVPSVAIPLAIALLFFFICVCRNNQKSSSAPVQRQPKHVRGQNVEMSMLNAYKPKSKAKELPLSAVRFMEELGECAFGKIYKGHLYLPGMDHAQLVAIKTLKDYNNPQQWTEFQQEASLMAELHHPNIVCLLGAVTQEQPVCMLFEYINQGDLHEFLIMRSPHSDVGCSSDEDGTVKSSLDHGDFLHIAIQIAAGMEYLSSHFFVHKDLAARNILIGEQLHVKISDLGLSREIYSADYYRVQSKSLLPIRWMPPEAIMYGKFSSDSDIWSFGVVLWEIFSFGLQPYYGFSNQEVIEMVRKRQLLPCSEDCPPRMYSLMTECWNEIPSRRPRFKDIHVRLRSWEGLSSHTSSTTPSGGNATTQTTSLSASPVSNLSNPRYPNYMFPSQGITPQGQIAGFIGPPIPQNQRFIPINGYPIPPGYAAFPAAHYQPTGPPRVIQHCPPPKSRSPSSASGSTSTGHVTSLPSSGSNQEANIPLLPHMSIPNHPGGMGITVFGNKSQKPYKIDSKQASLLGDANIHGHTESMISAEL

With Control (antibody), the % of cells in the ROR1+ gate came to 0.7%.
